The values that follow come from patent US20230087128A1 (KEROS THERAPEUTICS, published 2023).

B1: ActRIIB (SEQ ID NO: 17)-Fc (Fc fusion, not shown: a dimerising Fc or GST)
chain: GRGEAETRECIYYNANWELERTNQSGLERCEGEQDKRLHCYASWRNSSGTIELVKKGCWLDDFNCYDRQECVATEENPQVYFCCCEGNFCNERFTHLPEAGGPEVTYEPPPTAPT
notes: Recombinant wild-type extracellular ActRIIB-Fc; also called ActRIIB-Fc
B8: growth differentiation factor 11 (GDF11) (ligand, UniProt O95390 299-407, looked up)
chain: NLGLDCDEHSSESRCCRYPLTVDFEAFGWDWIIAPKRYKANYCSGQCEYMFMQKYPHTHLVQQANPRGSAGPCCTPTKMSPINMLYFNDKQQIIYGKIPGMVVDRCGCS
B10: BMP-9 (ligand, UniProt Q9UK05 320-429, looked up)
chain: SAGAGSHCQKTSLRVNFEDIGWDSWIIAPKEYEAYECKGGCFFPLADDVTPTKHAIVQTLVHLKFPTKVGKACCVPTKLSPISVLYKDDMGVPTLKYHYEGMSVAECGCR
notes: also called bone morphogenetic protein 9

Holding throughout (assay): SPR (Biacore 3000), Fc fusion captured, ligand in solution
The target of one assay is T1, Activin B (UniProt P09529 293-407).
T1 sequence (looked up): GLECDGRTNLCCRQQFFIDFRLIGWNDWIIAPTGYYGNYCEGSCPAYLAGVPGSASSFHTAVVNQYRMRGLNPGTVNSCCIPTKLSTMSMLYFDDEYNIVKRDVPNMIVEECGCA
An excerpt: (§1) The GE Biacore 3000 was used to measure the kinetics of the interactions between the ActRIIB-Fc variants and the ligands Activin A, Activin B, growth differentiation factor 11 (GDF11), and BMP-9. […] All other ActRIIB-Fc variants were expressed by transient expression in HEK293 cells and purified from the conditioned media using Protein-A Sepharose chromatography. Flow cells 1-4 were immobilized with anti-human/anti-mouse capture antibodies from GE using the amine coupling kit. The ActRII-Fc proteins were then captured on the chip in flow cells 2-4, with flow cell 1 being left empty as a reference cell to measure and subtract any nonspecific binding. HBS-EP+ buffer from GE Healthcare™ was used as a running buffer. Each ligand was run in a duplicate concentration series at 40 μl/min to avoid mass transport effects. All data was collected on a CM-5 chip except for GDF-11, which used CM-4. The data was analyzed using Scrubber2 by BioLogic™ Software to calculate the KD of each interaction (Table 4).

The target of the next assay is T2, Activin A (UniProt P08476 311-426).
T2 sequence (looked up): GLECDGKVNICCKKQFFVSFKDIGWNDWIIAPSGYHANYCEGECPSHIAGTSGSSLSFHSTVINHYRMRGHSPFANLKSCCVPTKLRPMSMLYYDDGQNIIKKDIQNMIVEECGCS
From the text: as §1

The assay “BMP-9” addresses B10.
From the text: as §1

Assay [1] concerns the target B8.
From the text: as §1

In assay [2] the target is B1.
From the text: as §1

Another assay concerns the target T3, BMP-9, Q9UK05.
T3 chain: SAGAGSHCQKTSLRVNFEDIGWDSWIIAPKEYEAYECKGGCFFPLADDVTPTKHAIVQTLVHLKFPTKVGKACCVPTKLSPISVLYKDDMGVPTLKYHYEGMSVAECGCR
The following applies: remark: other sources report otherwise.

In the case of B1, the dissociation constant Kd – broadly, the concentration at which binding is half-saturated – is 23 pM in the assay with Activin B and 63 pM in the assay with Activin A.

B2: ActRIIB 2.09 variant (SEQ ID NO: 12)-Fc (Fc fusion, not shown: a dimerising Fc or GST)
chain: GRGEAETRECLYYNANWELERTNQSGVERCEGEKDKRLHCYASWRNSSGSLEIVKKGCWLDDFNCYDRTDCVATEENPQVYFCCCEGNMCNERFTHLPEAGGPEVTYEPPPTAPT
notes: Engineered variant of the human ActRIIB extracellular portion; also called ActRIIB variant 2.09-hFc
With B2, the Kd with Activin B was found to be 160 pM; in the assay with Activin A, 100 pM; with BMP-9, 440 pM.

B3: ActRIIB 2.05 variant (SEQ ID NO: 8)-Fc (Fc fusion, not shown: a dimerising Fc or GST)
chain: GRGEAETRECIYYNANWELERTNQSGLERCYGDKDKRLHCYASWRNSSGTIELVKKGCWLDDFNCYDRQECVAKKDSPEVYFCCCEGNFCNERFTHLPEAGGPEVTYEPPPTAPT
notes: Engineered variant of the human ActRIIB extracellular portion
As for B3, the binding result with BMP-9 is “no binding”.

B4: ActRIIB 2.11 variant (SEQ ID NO: 14)-Fc (Fc fusion, not shown: a dimerising Fc or GST)
chain: GRGEAETRECLYYNANWELERTNQSGVERCEGEKDKRLHCYASWRNSSGSLEIVKKGCWLDDFNCYDRTDCVATKENPQVYFCCCEGNMCNERFTHLPEAGGPEVTYEPPPTAPT
notes: Engineered variant of the human ActRIIB extracellular portion; recombinant protein
For the molecule B4, the equilibrium dissociation constant (Kd) with Activin B stood at 370 pM; with Activin A, 780 pM; with BMP-9, 2700 pM; in assay [1], 240 pM.

B5: ActRIIB 2.12 variant (SEQ ID NO: 15)-Fc (Fc fusion, not shown: a dimerising Fc or GST)
chain: GRGEAETRECLYYNANWELERTNQSGVERCEGEKDKRLHCYASWRNSSGSLEIVKKGCWLDDFNCYDRDTCVATKENPQVYFCCCEGNMCNERFTHLPEAGGPEVTYEPPPTAPT
notes: as for B4
As to B5, the Kd was found to be 160 pM with Activin B, 140 pM in the assay with Activin A, 31000 pM with BMP-9 and 130 pM in assay [1].

B6: ActRIIB 2.06 variant (SEQ ID NO: 9)-Fc (Fc fusion, not shown: a dimerising Fc or GST)
chain: GRGEAETRECIYYNANWELERTNQSGLERCEGEQDKRLHCFASWKNSSGTIELVKQGCWLDDFNCYDRQECVAKKDSPEVYFCCCEGNFCNERFTHLPEAGGPEVTYEPPPTAPT
notes: Engineered variant of the human ActRIIB extracellular portion; recombinant protein; also called ActRIIB variant 2.06-hFc
B6: the dissociation constant (Kd) in the assay with Activin B came to 100 pM; in the assay with Activin A it was 53 pM; with BMP-9, 300 pM; in assay [1] it was 27 pM.

B7: ActRIIBΔ9 variant (SEQ ID NO: 3)-Fc (Fc fusion, not shown: a dimerising Fc or GST)
chain: GRGEAETRECIYYNANWELDRTNQSGLERCEGEQDKRLHCYASWRNSSGTIELVKKGCWLDDINCYDRQECVATKENPQVYFCCCEGNFCNERFTHLPEAGGPEVTYEPPPTAPT
notes: as for B3
Take B7: the Kd with Activin B came out at 400000 pM; in the assay with Activin A, 390000 pM; with BMP-9 it was 28000 pM; in assay [1] it was 530000 pM.

In turn, B8 had a dissociation constant Kd in assay [2] of 120 pM.

B9: ActRIIB 2.10 variant (SEQ ID NO: 13)-Fc (Fc fusion, not shown: a dimerising Fc or GST)
chain: GRGEAETRECLYYNANWELERTNQSGVERCEGEKDKRLHCYASWRNSSGSLEIVKKGCWLDDFNCYDRDTCVATEENPQVYFCCCEGNMCNERFTHLPEAGGPEVTYEPPPTAPT
notes: Engineered variant of the human ActRIIB extracellular portion; also called ActRIIB variant 2.10-hFc
Turning to B9, the dissociation constant Kd with Activin B was determined as 280 pM; with Activin A, 450 pM; with BMP-9 it was 1700 pM.

Take B10: the dissociation constant Kd in assay [2] came to 280 pM. That is a sub-nanomolar value.

B11: ActRIIB/A variant (SEQ ID NO: 2)-Fc (Fc fusion, not shown: a dimerising Fc or GST)
chain: GRGEAETRECIFYNANWEKDRTNQSGLEPCYGDQDKRRHCFASWKNSSGTIELVKQGCWLDDINCYDRQECVAKKDSPEVYFCCCEGNFCNERFTHLPEAGGPEVTYEPPPTAPT
notes: Engineered variant of the human ActRIIB extracellular portion; expressed transiently in HEK293 and Protein A purified (SPR); conditioned media in the reporter assay; also called ActRIIB/A-Fc
As for B11, the binding result (with Activin B; with Activin A; in assay [1]) was “no binding” in each case. Also, in the assay with BMP-9, Q9UK05, the Kd was 88000 pM.
